In the RNAGym collection of RNA variant scans (doi:10.1101/gr.219683.116):

B1: mRNA-splicing (parent)
chain: AGUUGCUGCUGGGAGCUCCAGCACAGUGAAAUGGACAGAAGGGCAGAGCAA

Variants of: B1
Assay: exon inclusion enrichment index; higher = more inclusion; WT1 exon 5 minigene, HEK293

First: AGUUACCACCGGGAGCUCCAGCACAGUGUAAUGGACAGAAGGGCAGAGCAA [G5A U7C G8A U10C A29U]
Second: AGUUACCACCGGGAGCUCCAGCACAGUGGAAUGGACAGAAGGGCAGAGCAA [G5A U7C G8A U10C A29G]
The “exon inclusion enrichment index” value of the first is lower: 0.801 for the first, 3.4 for the second.

Compared with AGUUACCACCGGGAGCUCCAGCACAGUGAAAUGGACGAAAGGGCAGAGCAA [G5A U7C G8A U10C A37G G38A], AGUUACCACCGGGAGCUCCAGCACAGUGAGCUGGACAGAAGGGCAGAGCAA [G5A U7C G8A U10C A30G A31C] is lower in “exon inclusion enrichment index” value: 2.19 for the first, 0.305 for the second.

Compared with AGUUACCACCGGGAGCUCCAGCACAGUGAGGUGGACAGAAGGGCAGAGCAA [G5A U7C G8A U10C A30G A31G], AGUUACCACCGGGAGCUCCAGCACAGUGAGUUGGACAGAAGGGCAGAGCAA [G5A U7C G8A U10C A30G A31U] is lower in “exon inclusion enrichment index” value: 0.823 for the first, 0.691 for the second.

Compared with AGUUACCACCGGGAGCUCCAGCACAGUGAAAUGGCAAGAAGGGCAGAGCAA [G5A U7C G8A U10C A35C C36A], AGUUACCACCGGGAGCUCCAGCACAGUGAAAUGGCUAGAAGGGCAGAGCAA [G5A U7C G8A U10C A35C C36U] is lower in “exon inclusion enrichment index” value: 1.46 for the first, 0.244 for the second.

Compared with AGUUACCACCGGGAGCUCCAGCACAGUGAAAUGGCGAGAAGGGCAGAGCAA [G5A U7C G8A U10C A35C C36G], AGUUACCACCGGGAGCUCCAGCACAGUGAAUAGGACAGAAGGGCAGAGCAA [G5A U7C G8A U10C A31U U32A] is lower in “exon inclusion enrichment index” value: 2.06 for the first, 0.229 for the second.

First: AGUUACCACCGGGAGCUCCAGCACAGUGAAUCGGACAGAAGGGCAGAGCAA [G5A U7C G8A U10C A31U U32C]
Second: AGUUACCACCGGGAGCUCCAGCACAGUGAAUGGGACAGAAGGGCAGAGCAA [G5A U7C G8A U10C A31U U32G]
The “exon inclusion enrichment index” value of the first is higher: 3.11 for the first, 1.32 for the second.

First: AGUUACCACCGGGAGCUCCAGCACAGUGAAAUGGACCUAAGGGCAGAGCAA [G5A U7C G8A U10C A37C G38U]
Second: AGUUACCACCGGGAGCUCCAGCACAGUGAAAUGGACCAAAGGGCAGAGCAA [G5A U7C G8A U10C A37C G38A]
The “exon inclusion enrichment index” value of the first is lower: 1.6 for the first, 2.05 for the second.

Compared with AGUUACCACCGGGAGCUCCAGCACAGUGAAAUGGACCCAAGGGCAGAGCAA [G5A U7C G8A U10C A37C G38C], AGUUACCACCGGGAGCUCCAGCACAGUGAACGGGACAGAAGGGCAGAGCAA [G5A U7C G8A U10C A31C U32G] is higher in “exon inclusion enrichment index” value: 2.35 for the first, 2.85 for the second.

Going from AGUUACCACCGGGAGCUCCAGCACAGUGAACAGGACAGAAGGGCAGAGCAA [G5A U7C G8A U10C A31C U32A] to AGUUACCACCGGGAGCUCCAGCACAGUGAACCGGACAGAAGGGCAGAGCAA [G5A U7C G8A U10C A31C U32C], the “exon inclusion enrichment index” value rises from 1.81 to 3.58.

Going from AGUUACCACCGGGAGCUCCAGCACAGUGAAAUGGUUAGAAGGGCAGAGCAA [G5A U7C G8A U10C A35U C36U] to AGUUACCACCGGGAGCUCCAGCACAGUGAAAUGGUAAGAAGGGCAGAGCAA [G5A U7C G8A U10C A35U C36A], the “exon inclusion enrichment index” value falls from 0.0422 to 0.00832.

Compared with AGUUACCACCGGGAGCUCCAGCACAGUGAAAUGGUGAGAAGGGCAGAGCAA [G5A U7C G8A U10C A35U C36G], AGUUACCACCGGGAGCUCCAGCACAGUGAAGUGGACAGAAGGGCAGAGCAA [G5A U7C G8A U10C A31G] is higher in “exon inclusion enrichment index” value: 0.19 for the first, 2.95 for the second.

First: AGUUACCACCGGGAGCUCCAGCACAGUGAAUUGGACAGAAGGGCAGAGCAA [G5A U7C G8A U10C A31U]
Second: AGUUACCACCGGGAGCUCCAGCACAGUGAACUGGACAGAAGGGCAGAGCAA [G5A U7C G8A U10C A31C]
The “exon inclusion enrichment index” value of the first is lower: 2.07 for the first, 2.89 for the second.

First: AGUUACCACCGGGAGCUCCAGCACAGUGAAAUGGCCAGAAGGGCAGAGCAA [G5A U7C G8A U10C A35C]
Second: AGUUACCACCGGGAGCUCCAGCACAGUGAAAUGGUCAGAAGGGCAGAGCAA [G5A U7C G8A U10C A35U]
The “exon inclusion enrichment index” value of the first is higher: 0.917 for the first, 0.475 for the second.

Compared with AGUUACCACCGGGAGCUCCAGCACAGUGAAAUGGGCAGAAGGGCAGAGCAA [G5A U7C G8A U10C A35G], AGUUACCACCGGGAGCUCCAGCACAGUGACGUGGACAGAAGGGCAGAGCAA [G5A U7C G8A U10C A30C A31G] is higher in “exon inclusion enrichment index” value: 0.89 for the first, 3.4 for the second.

First: AGUUACCACCGGGAGCUCCAGCACAGUGACUUGGACAGAAGGGCAGAGCAA [G5A U7C G8A U10C A30C A31U]
Second: AGUUACCACCGGGAGCUCCAGCACAGUGACCUGGACAGAAGGGCAGAGCAA [G5A U7C G8A U10C A30C A31C]
The “exon inclusion enrichment index” value of the first is lower: 2.21 for the first, 3.14 for the second.

Compared with AGUUACCACCGGGAGCUCCAGCACAGUGAAAUGGGUAGAAGGGCAGAGCAA [G5A U7C G8A U10C A35G C36U], AGUUACCACCGGGAGCUCCAGCACAGUGAAAUGGGAAGAAGGGCAGAGCAA [G5A U7C G8A U10C A35G C36A] is higher in “exon inclusion enrichment index” value: 0.025 for the first, 1.29 for the second.

Compared with AGUUACCACCGGGAGCUCCAGCACAGUGAAAUGGGGAGAAGGGCAGAGCAA [G5A U7C G8A U10C A35G C36G], AGUUACCACCGGGAGCUCCAGCACAGUGGUAUGGACAGAAGGGCAGAGCAA [G5A U7C G8A U10C A29G A30U] is higher in “exon inclusion enrichment index” value: 0.306 for the first, 0.757 for the second.

Going from AGUUACCACCGGGAGCUCCAGCACAGUGGCAUGGACAGAAGGGCAGAGCAA [G5A U7C G8A U10C A29G A30C] to AGUUACCACCGGGAGCUCCAGCACAGUGGGAUGGACAGAAGGGCAGAGCAA [G5A U7C G8A U10C A29G A30G], the “exon inclusion enrichment index” value rises from 1.32 to 1.92.

Compared with AGUUACCACCGGGAGCUCCAGCACAGUGAUUUGGACAGAAGGGCAGAGCAA [G5A U7C G8A U10C A30U A31U], AGUUACCACCGGGAGCUCCAGCACAGUGAUGUGGACAGAAGGGCAGAGCAA [G5A U7C G8A U10C A30U A31G] is higher in “exon inclusion enrichment index” value: 1.86 for the first, 2.36 for the second.

Compared with AGUUACCACCGGGAGCUCCAGCACAGUGAUCUGGACAGAAGGGCAGAGCAA [G5A U7C G8A U10C A30U A31C], AGUUACCACCGGGAGCUCCAGCACAGUGAAAUGGACCGAAGGGCAGAGCAA [G5A U7C G8A U10C A37C] is higher in “exon inclusion enrichment index” value: 2.13 for the first, 3.08 for the second.

Compared with AGUUACCACCGGGAGCUCCAGCACAGUGAAAUGGACGGAAGGGCAGAGCAA [G5A U7C G8A U10C A37G], AGUUACCACCGGGAGCUCCAGCACAGUGAAGAGGACAGAAGGGCAGAGCAA [G5A U7C G8A U10C A31G U32A] is higher in “exon inclusion enrichment index” value: 3.3 for the first, 4.37 for the second.

Compared with AGUUACCACCGGGAGCUCCAGCACAGUGAAGCGGACAGAAGGGCAGAGCAA [G5A U7C G8A U10C A31G U32C], AGUUACCACCGGGAGCUCCAGCACAGUGAAGGGGACAGAAGGGCAGAGCAA [G5A U7C G8A U10C A31G U32G] is lower in “exon inclusion enrichment index” value: 4.44 for the first, 1.52 for the second.

Compared with AGUUACCACCGGGAGCUCCAGCACAGUGAUAUGGACAGAAGGGCAGAGCAA [G5A U7C G8A U10C A30U], AGUUACCACCGGGAGCUCCAGCACAGUGAGAUGGACAGAAGGGCAGAGCAA [G5A U7C G8A U10C A30G] is higher in “exon inclusion enrichment index” value: 1.71 for the first, 2.36 for the second.

Going from AGUUACCACCGGGAGCUCCAGCACAGUGACAUGGACAGAAGGGCAGAGCAA [G5A U7C G8A U10C A30C] to AGUUACCACCGGGAGCUCCAGCACAGUGUUAUGGACAGAAGGGCAGAGCAA [G5A U7C G8A U10C A29U A30U], the “exon inclusion enrichment index” value falls from 2.51 to 0.907.

Compared with AGUUACCACCGGGAGCUCCAGCACAGUGUGAUGGACAGAAGGGCAGAGCAA [G5A U7C G8A U10C A29U A30G], AGUUACCACCGGGAGCUCCAGCACAGUGUCAUGGACAGAAGGGCAGAGCAA [G5A U7C G8A U10C A29U A30C] is lower in “exon inclusion enrichment index” value: 2.78 for the first, 1.98 for the second.

In the case of AGUUACCACCGGGAGCUCCAGCACAGUGCUAUGGACAGAAGGGCAGAGCAA [G5A U7C G8A U10C A29C A30U], the “exon inclusion enrichment index” value is reported as 1.35.
